Test [1] concerns the target whole-length cardiac myosin isolated from mice hearts (mouse) (UniProt Q91Z83). Kind of test: co-sedimentation; whole-length cardiac myosin (10 µM) incubated with increasing concentration (0-10 µM) of hC0-C2; Michaelis-Menten binding fit.
Test [2] deals with wild-type recombinant human cMyBP-C C0-C2 region (hC0-C2^WT) (human). Kind of test: ITC; 20 µM hC0-C2 titrated against 350 µM hS2; n = 3.
Test [3] addresses recombinant human cMyBP-C C0-C2 region with D389V (hC0-C2^D389V) (human). Kind of test: solid-phase binding assay; 20 µM hC0-C2 incubated with increasing concentrations of hS2 (0-20 µM); binding of hS2 read by fluorescence intensity; Michaelis-Menten binding fit; n = 3.
Test [4] addresses wild-type recombinant human cMyBP-C C0-C2 region (hC0-C2^WT) (human). The test is described as above.

UniProt Q91Z83, sequence (Q91Z83 whole entry, chain 1 of 3): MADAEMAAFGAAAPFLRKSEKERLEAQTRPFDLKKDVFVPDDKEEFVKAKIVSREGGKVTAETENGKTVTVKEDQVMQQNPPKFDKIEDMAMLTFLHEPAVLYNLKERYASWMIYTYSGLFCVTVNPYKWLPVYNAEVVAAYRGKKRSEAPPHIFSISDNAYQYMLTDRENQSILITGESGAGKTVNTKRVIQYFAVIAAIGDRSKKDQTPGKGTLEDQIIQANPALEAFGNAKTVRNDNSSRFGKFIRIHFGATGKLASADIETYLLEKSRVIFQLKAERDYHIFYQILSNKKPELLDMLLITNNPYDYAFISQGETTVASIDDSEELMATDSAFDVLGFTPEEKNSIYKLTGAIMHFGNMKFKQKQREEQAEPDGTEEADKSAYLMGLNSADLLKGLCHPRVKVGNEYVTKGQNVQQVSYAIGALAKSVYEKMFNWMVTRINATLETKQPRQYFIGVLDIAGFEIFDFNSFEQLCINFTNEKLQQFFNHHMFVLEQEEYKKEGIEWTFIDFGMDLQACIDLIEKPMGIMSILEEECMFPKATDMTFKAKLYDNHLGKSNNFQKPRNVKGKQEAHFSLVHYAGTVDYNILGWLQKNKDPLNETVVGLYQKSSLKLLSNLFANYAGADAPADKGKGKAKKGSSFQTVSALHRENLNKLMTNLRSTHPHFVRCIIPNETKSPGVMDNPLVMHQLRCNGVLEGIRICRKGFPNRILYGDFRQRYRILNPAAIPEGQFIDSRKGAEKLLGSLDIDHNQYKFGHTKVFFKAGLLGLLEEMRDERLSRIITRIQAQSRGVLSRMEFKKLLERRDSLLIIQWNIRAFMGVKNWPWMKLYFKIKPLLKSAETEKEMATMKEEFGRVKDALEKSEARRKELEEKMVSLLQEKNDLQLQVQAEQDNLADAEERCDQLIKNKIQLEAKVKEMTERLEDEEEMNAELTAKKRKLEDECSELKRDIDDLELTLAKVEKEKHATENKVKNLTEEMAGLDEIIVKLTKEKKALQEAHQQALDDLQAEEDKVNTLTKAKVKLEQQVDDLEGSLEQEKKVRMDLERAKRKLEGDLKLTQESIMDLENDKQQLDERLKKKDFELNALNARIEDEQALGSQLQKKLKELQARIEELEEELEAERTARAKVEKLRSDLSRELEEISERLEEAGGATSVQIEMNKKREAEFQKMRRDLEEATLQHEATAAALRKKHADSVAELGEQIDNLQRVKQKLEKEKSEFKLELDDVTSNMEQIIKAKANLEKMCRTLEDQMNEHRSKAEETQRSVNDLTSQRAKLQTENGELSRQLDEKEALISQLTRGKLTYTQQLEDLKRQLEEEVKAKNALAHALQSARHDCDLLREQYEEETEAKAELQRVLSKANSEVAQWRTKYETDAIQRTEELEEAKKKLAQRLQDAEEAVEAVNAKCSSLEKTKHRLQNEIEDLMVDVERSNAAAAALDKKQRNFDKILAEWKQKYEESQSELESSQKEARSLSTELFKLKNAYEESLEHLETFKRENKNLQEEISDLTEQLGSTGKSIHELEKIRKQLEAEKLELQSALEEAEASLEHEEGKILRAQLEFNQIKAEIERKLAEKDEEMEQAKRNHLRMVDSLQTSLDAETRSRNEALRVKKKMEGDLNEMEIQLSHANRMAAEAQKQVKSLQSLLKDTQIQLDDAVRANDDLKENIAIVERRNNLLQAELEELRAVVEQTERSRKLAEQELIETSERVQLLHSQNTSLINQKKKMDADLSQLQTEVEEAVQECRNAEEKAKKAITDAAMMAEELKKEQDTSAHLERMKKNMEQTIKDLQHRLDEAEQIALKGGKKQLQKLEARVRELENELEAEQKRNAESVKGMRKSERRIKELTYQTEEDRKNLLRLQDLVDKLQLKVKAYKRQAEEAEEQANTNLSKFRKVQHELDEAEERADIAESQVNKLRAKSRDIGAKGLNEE
UniProt Q91Z83, sequence (P09542 2-204, chain 2 of 3, further chain): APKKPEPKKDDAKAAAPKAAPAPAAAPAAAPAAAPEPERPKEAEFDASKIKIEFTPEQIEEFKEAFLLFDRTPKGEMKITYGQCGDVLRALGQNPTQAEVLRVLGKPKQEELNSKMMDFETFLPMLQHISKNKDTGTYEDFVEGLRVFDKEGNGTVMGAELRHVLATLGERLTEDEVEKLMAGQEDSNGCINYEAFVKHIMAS
UniProt Q91Z83, sequence (P51667 2-166, chain 3 of 3, further chain): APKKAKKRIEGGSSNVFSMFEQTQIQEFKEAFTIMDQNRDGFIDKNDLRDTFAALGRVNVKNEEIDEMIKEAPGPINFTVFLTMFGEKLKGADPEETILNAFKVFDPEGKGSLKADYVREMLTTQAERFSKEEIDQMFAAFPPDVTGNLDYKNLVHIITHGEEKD

For the substance “recombinant human cMyBP-C C0-C2 region with D389V (hC0-C2^D389V) (domain or fragment)”, the equilibrium dissociation constant (Kd) – broadly, a measure of binding affinity in units of concentration – in test [1] stood at 900 nM.

For the substance “recombinant proximal (126 residues) human myosin S2 (hS2) (domain or fragment)”, the stoichiometry N (commonly the number of molecules, sites or subunits per partner or assembly) in test [2] turned out to be 0.96. In addition, the Kd stood at 4730 nM in test [3] and 4950 nM in test [4].

“wild-type recombinant human cMyBP-C C0-C2 region (hC0-C2^WT) (domain or fragment)” displayed a Kd in test [1] of 840 nM.
